The labels stand for the following.
B1: glmS ribozyme (parent)
chain: AUAAAAGCGCCAGAACUACAGAAAUGUAGUUGACGAGGAGGAGGUUUAUCGAAUUUUCGGCGGAUGCCUCCAAA

Common to all, as to conditions: with glucosamine-6-phosphate
In data set [1] the parent is B1. The data set can be described thus: kcat; higher = faster cleavage; RNA array. In a few lines:
(§1)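 Glucosamine-6-phosphate (40 μM to 10 mM) in HEPES/KCl/Mg(OAc)2 buffer was flowed over sequenced MiSeq chips, and tiles were imaged over ~14 h. Barcoded ribozyme variants there had been transcribed in situ by E. coli RNA polymerase and were tracked through a hybridised Cy3 probe at 37 °C. One- or two-exponential decay fits to per-tile medians, normalised to baseline and to non-cleaving reference variants, gave kobs. kcat and KM came from weighted Michaelis–Menten fits across concentrations.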

Variants of B1 are the subject of data set [2]. The data set can be described thus: self-cleavage kobs at 160 uM GlcN6P; higher = faster cleavage; RNA array. In a few lines:
as §1

Data set [3] covers variants of B1. Kind of data set: self-cleavage kobs at 640 uM GlcN6P; higher = faster cleavage; RNA array. In short, it runs like this:
as §1

Data set [4] covers variants of B1. The data set can be described thus: self-cleavage kobs at 2500 uM GlcN6P; higher = faster cleavage; RNA array. In a few lines:
as §1

The variants in data set [5] derive from B1. Kind of data set: self-cleavage kobs at 10000 uM GlcN6P; higher = faster cleavage; RNA array. In a few lines:
as §1

The variants in data set [6] derive from B1. Kind of data set: KM; higher = weaker cofactor use; RNA array. In a few lines: as §1
In data set [7] the parent is B1. The data set can be described thus: self-cleavage kobs at 40 uM GlcN6P; higher = faster cleavage; RNA array. In short, it runs like this:
as §1

± gives the standard error. For part of these data: This sample holds only a part of the variants without activity.

In the case of U46A U54G C70G, the kcat in data set [1] was found to be 0.000171 ± 6e-05 s⁻¹. Moreover, in data set [2], the “self-cleavage kobs at 160 uM GlcN6P” value was found to be 6.23e-05 ± 2e-05 s⁻¹. Moreover, the “self-cleavage kobs at 640 uM GlcN6P” value in data set [3] was determined as 0.000291 ± 6.7e-05 s⁻¹. For the same variant, the “self-cleavage kobs at 2500 uM GlcN6P” value in data set [4] stood at 0.000305 ± 6.4e-05 s⁻¹. Further, the “self-cleavage kobs at 10000 uM GlcN6P” value in data set [5] is 0.000127 ± 2.9e-05 s⁻¹.
U45C C67U: in data set [1], the kcat is 0.00406 ± 0.00066 s⁻¹. Also, the Michaelis-Menten constant (KM) in data set [6] came to 2250 ± 580 µM. The “self-cleavage kobs at 40 uM GlcN6P” value in data set [7] was 8.28e-05 ± 9.7e-06 s⁻¹. The “self-cleavage kobs at 160 uM GlcN6P” value in data set [2] stood at 0.000146 ± 5.8e-05 s⁻¹. Also, the “self-cleavage kobs at 640 uM GlcN6P” value in data set [3] is 0.000935 ± 0.00014 s⁻¹. The “self-cleavage kobs at 2500 uM GlcN6P” value in data set [4] was found to be 0.00203 ± 0.00032 s⁻¹. Moreover, the “self-cleavage kobs at 10000 uM GlcN6P” value in data set [5] was determined as 0.00337 ± 0.00031 s⁻¹.
For A14U G38C, in data set [1], the catalytic constant (kcat) is < 1e-05 s⁻¹. For the same variant, the “self-cleavage kobs at 40 uM GlcN6P” value in data set [7] is < 1e-05 s⁻¹. For the same variant, in data set [3], the “self-cleavage kobs at 640 uM GlcN6P” value is < 1e-05 s⁻¹. The “self-cleavage kobs at 2500 uM GlcN6P” value in data set [4] was < 1e-05 s⁻¹. The “self-cleavage kobs at 10000 uM GlcN6P” value in data set [5] is < 1e-05 s⁻¹.
Take G60A C70U: the kcat in data set [1] was determined as 3.47e-05 ± 4e-06 s⁻¹. The “self-cleavage kobs at 40 uM GlcN6P” value in data set [7] was < 1e-05 s⁻¹. In data set [4], the “self-cleavage kobs at 2500 uM GlcN6P” value was 1.93e-05 ± 9.2e-06 s⁻¹. For the same variant, the “self-cleavage kobs at 10000 uM GlcN6P” value in data set [5] came out at 3.02e-05 ± 6.5e-06 s⁻¹.
With G29U C58U C68U, the kcat in data set [1] came out at 3.99e-05 ± 1.3e-05 s⁻¹. Moreover, in data set [4], the “self-cleavage kobs at 2500 uM GlcN6P” value worked out at 5.55e-05 ± 2.2e-05 s⁻¹.
As for A12G A42U, the kcat in data set [1] turned out to be 4.92e-05 ± 2.6e-06 s⁻¹. In data set [5], the “self-cleavage kobs at 10000 uM GlcN6P” value was 1.63e-05 ± 6.6e-06 s⁻¹.
C61G U69G: in data set [1], the kcat was found to be 1.73e-05 ± 4.8e-06 s⁻¹.
Take A33G G60C: the kcat in data set [1] was < 1e-05 s⁻¹. In data set [2], the “self-cleavage kobs at 160 uM GlcN6P” value is < 1e-05 s⁻¹. In data set [3], the “self-cleavage kobs at 640 uM GlcN6P” value was < 1e-05 s⁻¹.
G13C U45G: the catalytic constant (kcat) in data set [1] turned out to be 3.74e-05 ± 3.6e-06 s⁻¹. Further, the “self-cleavage kobs at 40 uM GlcN6P” value in data set [7] was < 1e-05 s⁻¹. Besides, in data set [5], the “self-cleavage kobs at 10000 uM GlcN6P” value worked out at 3.22e-05 ± 1.2e-05 s⁻¹.
As for G40A U57A, the turnover number (kcat) in data set [1] was 3.08e-05 ± 6.4e-06 s⁻¹. The “self-cleavage kobs at 40 uM GlcN6P” value in data set [7] is < 1e-05 s⁻¹. Besides, the “self-cleavage kobs at 160 uM GlcN6P” value in data set [2] was < 1e-05 s⁻¹. In data set [4], the “self-cleavage kobs at 2500 uM GlcN6P” value worked out at 3.99e-05 ± 1.3e-05 s⁻¹. In addition, the “self-cleavage kobs at 10000 uM GlcN6P” value in data set [5] came to 2.63e-05 ± 9.5e-06 s⁻¹.
As for A6U A15C A48U U69G, in data set [1], the kcat was determined as 2.37e-05 ± 7.1e-06 s⁻¹. In data set [7], the “self-cleavage kobs at 40 uM GlcN6P” value was < 1e-05 s⁻¹.
Consider G44C C67U, for which the kcat in data set [1] worked out at 0.00192 ± 0.00015 s⁻¹. In addition, the KM in data set [6] was 1700 ± 200 µM. Besides, the “self-cleavage kobs at 40 uM GlcN6P” value in data set [7] was determined as 5.1e-05 ± 1.3e-05 s⁻¹. Moreover, the “self-cleavage kobs at 160 uM GlcN6P” value in data set [2] came to 0.000153 ± 3.2e-05 s⁻¹. For the same variant, in data set [3], the “self-cleavage kobs at 640 uM GlcN6P” value amounted to 0.000532 ± 0.00011 s⁻¹. The “self-cleavage kobs at 2500 uM GlcN6P” value in data set [4] was 0.00109 ± 0.00024 s⁻¹. The “self-cleavage kobs at 10000 uM GlcN6P” value in data set [5] was 0.00168 ± 0.0003 s⁻¹.
As for C16A U31C, in data set [1], the kcat was found to be 0.000468 ± 0.00021 s⁻¹. Moreover, the “self-cleavage kobs at 640 uM GlcN6P” value in data set [3] worked out at 6.72e-05 ± 1.1e-05 s⁻¹. Also, the “self-cleavage kobs at 2500 uM GlcN6P” value in data set [4] came to 0.000139 ± 2.8e-05 s⁻¹. In data set [5], the “self-cleavage kobs at 10000 uM GlcN6P” value turned out to be 0.000418 ± 0.00011 s⁻¹.
With U31A C58G, the turnover number (kcat) in data set [1] was 0.000589 ± 0.00022 s⁻¹. Moreover, in data set [4], the “self-cleavage kobs at 2500 uM GlcN6P” value came to 3.87e-05 ± 1.3e-05 s⁻¹. The “self-cleavage kobs at 10000 uM GlcN6P” value in data set [5] worked out at 0.00013 ± 1.9e-05 s⁻¹.
With A52U U54A, in data set [1], the kcat is 0.000204 ± 9.2e-06 s⁻¹. Further, in data set [6], the Michaelis constant (KM) came to 1670 ± 180 µM. Besides, the “self-cleavage kobs at 640 uM GlcN6P” value in data set [3] is 5.55e-05 ± 8.3e-06 s⁻¹. For the same variant, in data set [4], the “self-cleavage kobs at 2500 uM GlcN6P” value was 0.000132 ± 2.1e-05 s⁻¹. For the same variant, in data set [5], the “self-cleavage kobs at 10000 uM GlcN6P” value is 0.000172 ± 1.8e-05 s⁻¹.
On to U47G U55C, for which, in data set [1], the turnover number (kcat) amounted to 0.00713 ± 0.0025 s⁻¹. The KM in data set [6] amounted to 1030 ± 470 µM. For the same variant, the “self-cleavage kobs at 40 uM GlcN6P” value in data set [7] was found to be 0.000233 ± 4.3e-05 s⁻¹. For the same variant, the “self-cleavage kobs at 160 uM GlcN6P” value in data set [2] amounted to 0.00147 ± 0.00034 s⁻¹. Further, in data set [3], the “self-cleavage kobs at 640 uM GlcN6P” value came out at 0.00372 ± 0.00087 s⁻¹. In addition, in data set [4], the “self-cleavage kobs at 2500 uM GlcN6P” value was determined as 0.00386 ± 0.0012 s⁻¹. Further, the “self-cleavage kobs at 10000 uM GlcN6P” value in data set [5] was 0.00759 ± 0.0024 s⁻¹.
For the variant G35U C70U, in data set [1], the kcat was < 1e-05 s⁻¹. Further, the “self-cleavage kobs at 160 uM GlcN6P” value in data set [2] was < 1e-05 s⁻¹. In addition, the “self-cleavage kobs at 640 uM GlcN6P” value in data set [3] was < 1e-05 s⁻¹. Further, the “self-cleavage kobs at 10000 uM GlcN6P” value in data set [5] was < 1e-05 s⁻¹.
Regarding A42G U69C, the turnover number (kcat) in data set [1] was found to be 0.0183 ± 0.0052 s⁻¹. Besides, the Michaelis constant (KM) in data set [6] stood at 599 ± 250 µM. Also, the “self-cleavage kobs at 40 uM GlcN6P” value in data set [7] worked out at 0.00116 ± 0.00032 s⁻¹. Moreover, in data set [2], the “self-cleavage kobs at 160 uM GlcN6P” value was 0.00336 ± 0.0014 s⁻¹. For the same variant, the “self-cleavage kobs at 640 uM GlcN6P” value in data set [3] is 0.0132 ± 0.0044 s⁻¹. In addition, the “self-cleavage kobs at 2500 uM GlcN6P” value in data set [4] came to 0.0132 ± 0.0041 s⁻¹.

Values taken from the supplement of paper PMC7125110.
